# In patent US20100169988A1 (published 2010):
# B1: Gamma enolase (2-phospho-D-glycerate hydrolyase) (Neural enolase) (enzyme, mouse, UniProt P17183 2-434, looked up)
# chain: SIEKIWAREILDSRGNPTVEVDLYTAKGLFRAAVPSGASTGIYEALELRDGDKQRYLGKGVLKAVDHINSRIAPALISSGISVVEQEKLDNLMLELDGTENKSKFGANAILGVSLAVCKAGAAERDLPLYRHIAQLAGNSDLILPVPAFNVINGGSHAGNKLAMQEFMILPVGAESFRDAMRLGAEVYHTLKGVIKDKYGKDATNVGDEGGFAPNILENSEALELVKEAIDKAGYTEKMVIGMDVAASEFYRDGKYDLDFKSPADPSRYITGDQLGALYQDFVRNYPVVSIEDPFDQDDWAAWSKFTANVGIQIVGDDLTVTNPKRIERAVEEKACNCLLLKVNQIGSVTEAIQACKLAQENGWGVMVSHRSGETEDTFIADLVVGLCTGQIKTGAPCRSERLAKYNQLMRIEEELGDEARFAGHNFRNPSVL
# notes: also called neuron-specific enolase
# B2: SH3-containing GRB2-like protein 1 (SH3 domain protein 2B) (SH3p8) (other, mouse, UniProt Q62419 1-368, looked up)
# chain: MSVAGLKKQFYKASQLVSEKVGGAEGTKLDDDFKDMEKKVDVTSKAVAEVLVRTIEYLQPNPASRAKLTMLNTVSKIRGQVKNPGYPQSEGLLGECMVRHGKELGGESNFGDALLDAGESMKRLAEVKDSLDIEVKQNFIDPLQNLCDKDLKEIQHHLKKLEGRRLDFDYKKKRQGKIPDEELRQALEKFEESKEVAETSMHNLLETDIEQVSQLSALVDAQLDYHRQAVQILEELADKLKRRVREASSRPKREFKPRPREPFELGELEQPNGGFPCAPAPKITASSSFRSSDKPIRMPSKSMPPLDQPSCKALYDFEPENDGELGFREGDLITLTNQIDENWYEGMLHGQSGFFPLSYVQVLVPLPQ
# notes: also called SH3G1_MOUSE
# B3: Vesicle-fusing ATPase (EC 3.6.4.6) (Vesicular-fusion protein NSF) (N-ethylmaleimide sensitive fusion protein) (enzyme, mouse, UniProt P46460 1-744, looked up)
# chain: MAGRTMQAARCPTDELSLSNCAVVNEKDFQSGQHVMVRTSPNHKYIFTLRTHPSVVPGCIAFSLPQRKWAGLSIGQDIEVALYSFDKAKQCIGTMTIEIDFLQKKNIDSNPYDTDKMAAEFIQQFNNQAFSVGQQLVFSFNDKLFGLLVKDIEAMDPSILKGEPASGKRQKIEVGLVVGNSQVAFEKAENSSLNLIGKAKTKENRQSIINPDWNFEKMGIGGLDKEFSDIFRRAFASRVFPPEIVEQMGCKHVKGILLYGPPGCGKTLLARQIGKMLNAREPKVVNGPEILNKYVGESEANIRKLFADAEEEQRRLGANSGLHIIIFDEIDAICKQRGSMAGSTGVHDTVVNQLLSKIDGVEQLNNILVIGMTNRPDLIDEALLRPGRLEVKMEIGLPDEKGRLQILHIHTARMRGHQLLSADVDIKELAVETKNFSGAELEGLVRAAQSTAMNRHIKASTKVEVDMEKAESLQVTRGDFLASLENDIKPAFGTNQEDYASYIMNGIIKWGDPVTRVLDDGELLVQQTKNSDRTPLVSVLLEGPPHSGKTALAAKIAEESNFPFIKICSPDKMIGFSETAKCQAMKKIFDDAYKSQLSCVVVDDIERLLDYVPIGPRFSNLVLQALLVLLKKAPPQGRKLLIIGTTSRKDVLQEMEMLNAFSTTIHVPNIATGEQLLEALELLGNFKDKERTTIAQQVKGKKVWIGIKKLLMLIEMSLQMDPEYRVRKFLALMREEGASPLDFD
# B4: 14-3-3 protein epsilon (14-3-3E) (other, mouse, UniProt P62259 1-255, looked up)
# chain: MDDREDLVYQAKLAEQAERYDEMVESMKKVAGMDVELTVEERNLLSVAYKNVIGARRASWRIISSIEQKEENKGGEDKLKMIREYRQMVETELKLICCDILDVLDKHLIPAANTGESKVFYYKMKGDYHRYLAEFATGNDRKEAAENSLVAYKAASDIAMTELPPTHPIRLGLALNFSVFYYEILNSPDRACRLAKAAFDDAIAELDTLSEESYKDSTLIMQLLRDNLTLWTSDMQGDGEEQNKEALQDVEDENQ
# B5: Guanine nucleotide-binding protein G(o); alpha subunit 1 (other, mouse, UniProt P18872 2-354, looked up)
# chain: GCTLSAEERAALERSKAIEKNLKEDGISAAKDVKLLLLGAGESGKSTIVKQMKIIHEDGFSGEDVKQYKPVVYSNTIQSLAAIVRAMDTLGVEYGDKERKTDSKMVCDVVSRMEDTEPFSAELLSAMMRLWGDSGIQECFNRSREYQLNDSAKYYLDSLDRIGAGDYQPTEQDILRTRVKTTGIVETHFTFKNLHFRLFDVGGQRSERKKWIHCFEDVTAIIFCVALSGYDQVLHEDETTNRMHESLMLFDSICNNKFFIDTSIILFLNKKDLFGEKIKKSPLTICFPEYPGSNTYEDAAAYIQTQFESKNRSPNKEIYCHMTCATDTNNIQVVFDAVTDIIIANNLRGCGLY
# notes: also called GNAO1_MOUSE
# Biological target: T1, APP-TAP-AICD (human, UniProt P05067 18-695)
# Test: streptavidin purification of APP-TAP-AICD from brain homogenate; iTRAQ 116/114, transgenic mouse 75 vs control mouse 72; MALDI-TOF/TOF;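 further: relative protein abundance in the transgenic versus control pull-down, limited to proteins with high quality scores and above-average enrichment, without full normalization across the whole measurement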
# Source text: (§1) Shown are all proteins that have high quality scores and are enriched above average in the m75 sample. Purified bait protein is given underlined. Other already known interaction partners of AICD or putatively biologically relevant proteins are given in bold. As full normalization over the entire measurement was not possible through the GPS explorer software suite, this conservative estimate had to be taken for determining the enriched vs. the non-enriched proteins. […] Ranking is in order of abundance ratio.
row,iTRAQ ratio,Binder
1,4.08,B1
2,3.64,B2
3,4,B3
4,3.94,B4

# Biological target: T2, APP-TAP-AICD (human, UniProt P05067-4 18-695)
# T2 construct: Bait purified from brain homogenate of hemizygous transgenic mice via streptavidin; full-length APP and cleaved C-terminal stubs are isolated; also called TAP-tagged full-length human APP
# Test: as above
# Source text: as §1
row,iTRAQ ratio,Binder
1,3.38,B5

# Biological target: T1, APP-TAP-AICD
# Test: streptavidin purification of APP-TAP-AICD from brain homogenate; LTQ-FT semiquantitative method, transgenic mouse 75 vs control mouse 72
row,probability that this protein is enriched,Binder
1,1,B1
2,1,B2
3,0.86,B3
4,1,B4
